A short description of this series: soluble on expression in E. coli; label from the status in PepcDB or PDB records.
Regarding “MARQTKPLSVKEIESAKPKEADYVLYDGDGLELLIKSSGSKIWQFRYIRPVTKTRAKKSIGPYPSVTLADARNYRAESRSLLAKQIDPQEHQQEQLRSSLEAKTNTFQLVAERWWNVKKASVTEDYAEDIWRSLERDVFPAIGDVSVTDIKAHTLVQAVQPVQARGALETVRRLCQRINEVMIYAQNTGLIDAVPSVNIGKAFEKPQKKNMPSIRPDQLSQLMQTMRTASISLSTRCLFMWQLLTITRPAEAAEARWEEVDIEAQEWKIPAARMKMNRDHTVPLSDEAIAVLEMMKPLSGNREFIFPSRIKPNQPMNSQTVNASLKRAGFGGVLVSHGLRSIASTALNEQGFPPDAIEAALAHVDKNEVRRAYNRSDYLEQRRPMMQWWANFVMAADRGSMIEGGIKGMKLVG”, the “soluble on expression in E. coli” value is “not soluble”.

Consider “MTTKLQKRVNDLDEDIPRPPFSSHSDKTEDKEGVSEACPVCEKTVQNPCVLETGYVACYPCAISYLVNNEGHCPVTNKKLLGCTYNKHTNKWEVVTGIRKLLI”, for which the “soluble on expression in E. coli” value was “not soluble”.

As for “MGSDKIHHHHHHMSLAPSVIEPAHEEDAFMDLLATSALDDPLAAARDATADMLRQRQGDHSLPQPFYNDPRVFALEMREIFEHEWLFVGMTCEIPAKGNYLTVQIGDNPIIVVRGDQGTIHAFHNVCRHRGSRLCTQAKGKVAKLVCPYHQWTYELDGRLLFAGQDMGEDFDLGAHGLKPVAVTHAGGFLFVSLADQPPAIDDFLATLDDYLAPYEMDNVKVAAESNIVEQANWKLVIENNRECYHCNGAHPELLNSLIEYDDTDDPRATPAYRDLVARQQAHWEQQQVPWALKRFGKRNRLTRTPMIEGVVSMTMDGRPASQRLMGRLPNPDMGSLRILHLPNSWNHFMGDHAVVFRVLPLGPQQTLVTTKWLVHRDAQEGVDYDPEWMRKVWDATTDQDRQLAEENQRGINSVAYQPGPYSRTYEFGVIDFVDWYSDTMLSRLDAEAPSLHIVQG”, the “soluble on expression in E. coli” value is given as “not soluble”.

Consider “MIIVHHLNNSRSQRILWLLEELGLPYEIKRYQRDPKTNLAPPELKAIHPLGKSPVIEDGPHVVIESGAIVDYLIRRHGDGRLQPDPASATYDEYVQWLHFAEGSAILPLMLNLYVGRLGDAGAPLHPRIHSELANYLGYLNEALGLTPYLLGDELSGADIQMSFIGEFAKMQGMLQPHPNLAAWVQRCQERPAYRQALEQGGEYSFAK”, for which the “soluble on expression in E. coli” value is on record as “not soluble”.

Consider “MVVLNTPGKYQYDLRNHLLVNLFPIALDAEITTSNVNKHQLHRSNIPAALSGNSGITDYVPFSAERNAAMVIWRTAIDSRPAVCNDEEGTPGTL”, for which the “soluble on expression in E. coli” value is reported as “not soluble”. Consider “MQQSTLVRLKEKLTLKNPIMVVGLPGVGLVGKLVAEHLVDELAAERIMEVYSPHFPPQVLVNKDCTVRPVSNTIYLGKANETDVLFLVGDHQSTTAQGHYELCSLYLDIAEELKVPRIYTLGGYPTGKLTYEDTVLGVANSTELIEEIKQYGVEFRESEPSGGIVGASGLLVAFSGMRGIDAACLMGMTPGYLMDPKSAQSLLKVLCNIFGIEVNTDSLKKKAEEMENILEKLKEKEEQQNLPEVKPTEEDLRYIG”, for which the “soluble on expression in E. coli” value is on record as “soluble”.

As to “MSLSTFRSIEWKKDKLVLLDQRYLPEKTLYLELKTVDEVARAIKEMTVRGAPAIGVAAAYGMVLCVQKLSKNDDLIRELQKADDLLRASRPTAVNLFWALDRMKKIWQGFNGSLEDLKMILEKEATDIEREDVEINKQIAKNGVELVPFGAKIIHHCNTGSLATVDYGTALGVIRYAHEIGKKIHVFLDETRPRLQGARLSAWEMKELGIPHTIIVDGASGLVMKKFKIDLALVGADRIAANGDTANKIGTYNLAIVAKYHNVPLYVVAPTSTIDLKTPAGQDIPIEERSADEIRCVGNSQVAPQESPVFNPAFDVTPAELISGIITEKGIVYPPFKENLRKLFESAEGHHHHHH”, the “soluble on expression in E. coli” value is recorded as “soluble”.

Consider “MSLAHPPRLNDDKPVIWTVSVTRLFELFRDISLEFDHLANITPIQLGFEKAVTYIRKKLANERCDAIIAAGSNGAYLKSRLSVPVILIKPSGYDVLQELAKAGKLTSSIGVVTYQETIPALVAFQKTFNLRLDQRSYITEEDARGQINELKANGTEAVVGAGLITDLAEEAGMTGIFIYSAATVRQAFSDALDMTRMSLRHNTHDATRNALRTRYVLEGHHHHHH”, for which the “soluble on expression in E. coli” value is on record as “soluble”. For the sequence “MGHHHHHHSHMTDPLAPEGDNRVWYMDGYHNNRFVREYKSMVDFMNTDNFTSHRLPHPWSGTGQVVYNGSIYFNKFQSHIIIRFDLKTETILKTRSLDYAGYNNMYHYAWGGHSDIDLMVDESGLWAVYATNQNAGNIVVSRLDPVSLQTLQTWNTSYPKRSAGEAFIICGTLYVTNGYSGGTKVHYAYQTNASTYEYIDIPFQNKYSHISMLDYNPKDRALYAWNNGHQILYNVTLFHVIRSDEL”, the “soluble on expression in E. coli” value is “not soluble”. Regarding “MPVINVKDDEDFRNQLSLAGLKSVIVDFTAVWCGPCKMIAPTFEALSNQYLGAVFLKVDVEICEKTSSENGVNSMPTFMVFQSGVRVEQMKGADAKALETMVKKYADNSAADSLVAGQMDLTPLVDKKQMECLNESDDTPLGRFLEGNCNLVSDCDEQLIISLPFNQPVKVHSILIKGVSDRAPKKVKVFINLPKTTDFDNATALEPTQMLEFDESSIQGHGQVVALKYVKFQNVQNIQFFIENNVGGGDVTELVKLTVFGTPLSALNMNEFKRVAGKAGDAAH”, the “soluble on expression in E. coli” value is “not soluble”. Regarding “MSLGLVLSTNVAHIQQDPGGDDRISGINKLPVATGIDVFIPGPNYGDGSGVVGDAIGDSLHHGGAHKAIYAYSREELDFFDPTYRNGYFGENLTTSGIVLEDLLINQQVRIGTTLLEVSIPRRPCRTFAHWLDIKGWLKTFTQRGLPGSYFRVIEEGHINPGDPIEVLQAPDHDITMSMAFRAKMGNKDLARRVVAANCLPARYHEELLKLIEGHHHHHH”, the “soluble on expression in E. coli” value was “not soluble”. Regarding “MGHHHHHHSNKIERIIARLQRRIAEGQPEEQYEAAQETRLVAARYSKQGNWAAAVDILASVSQTLLRSGQGGSGGDLAVLLVDTFRQAGQRVDGASRGKLLGCLRLFQPGEPVRKRFVKEMIDWSKKFGDYPAGDPELHHVVGTLYVEEGEFEAAEKHLVLGTKESPEVLARMEYEWYKQDESHTAPLYCARAVLPYLLVANVRAANTAYRIFTSALVEDNKGLTVQNIGSQSAELRIFPSLPLLNFISMLLLSVQKGSPDLFRQLKSKYEANLNELNGIWDTALELIAEMYFGIQRPRQSNPLLDMMGSLFGGGGGAPSKAALRRIDTPAAEGLD”, the “soluble on expression in E. coli” value was “soluble”. The value for “MGSSHHHHHHHSSGLVPRGSHMMRKRARIIYNPTSGKEQFKRELPDALIKLEKAGYETSAYATEKIGDATLEAERAMHENYDVLIAAGGDGTLNEVVNGIAEKPNRPKLGVIPMGTVNDFGRALHIPNDIMGALDVIIEGHSTKVDIGKMNNRYFINLAAGGQLTQVSYETPSKLKSIVGPFAYYIKGFEMLPQMKAVDLRIEYDGNVFQGEALLFFLGLTNSMAGFEKLVPDAKLDDGYFTLIIVEKSNLAELGHIMTLASRGEHTKHPKVIYEKAKAINISSFTDLQLNVDGEYGGKLPANFLNLERHIDVFAPNDIVNEELINNDHVDDNLIEE” was “soluble”; that for “MEPHSLRYNLTVLSWDGSVQSGFLTEVHLDGQPFLRCDRQKCRAKPQGQWAEDVLGNKTWDRETRDLTGNGKDLRMTLAHIKDQKEGLHSLQEIRVCEIHEDNSTRSSQHFYYDGELFLSQNLETKEWTMPQSSRAQTLAMNVRNFLKEDAMKTKTHYHAMHADCLQELRRYLKSGVVLRRTVPPMVNVTRSEASEGNITVTCRASGFYPWNITLSWRQDGVSLSHDTQQWGDVLPDGNGTYQTWVATRICQGEEQRFTCYMEHSGNHSTHPVPS” was “soluble”; that for “MAKYEEAFKRQVVQEYLRGAVGTAGLSQKYGIGRSVIRRWINAWQRHGKSGLRKKHEAYSAEFKLTVLQRMWRDELSYQQVSAVFDLREAGGVSRWDRQYHEGGFDALQPRRKGGAPIMSQSKQDPQPAAQPAQDERSREDLLKENECLRAEVAYLKKLDALLRAKQQQAPKKKRKSLEHHHHHH” was “not soluble”. On to “MVQSCSAYGCKNRYDKDKPVSFHKFPLTRPSLCKEWEAAVRRKNFKPTKYSSICSEHFTPDCFKRECNNKLLKENAVPTIFLCTEPHDKKEDLLEPQEQLPPPPLPPPVSQVDAAIGLLMPPLQTPVNLSVFCDHNYTVEDTMHQRKRIHQLEQQVEKLRKKLKTAQQRCRRQERQLEKLKEVVHFQKEKDDVSERGYVILPNDYFEIVEVPA”, for which the “soluble on expression in E. coli” value is “soluble”.

Consider “MKFVNFDEYKQLVDYFRNRLNPNYSSPTMLFIISITGMRASEAFGLVWDDIDFNNNTIKCRRTWNYRNKVGGFKKPKTDAGIRDIVIDDESMQLLKDFREQQKTLFESLGIKPIHDFVCYHPYRKIITLSALQNTLDHALKKLNISTPLTVHGLRHTHASVLLYHGVDIMTVSKRLGHASVAITQQTYIHIIKELENKDKDKIIELLMELLEHHHHHH”, for which the “soluble on expression in E. coli” value is listed as “soluble”. Take “MKKLVTATTLTAGIGAAIVGLDHGNEADAAEQTQPTNQSTTQSTSGSSANLYTAGQCTWYVYDKVGGNIGSTWGNANNWASAASSAGYTVNNSPEAGSILQSTAGGYGHVAYVENVNSDGSVEVSEMNYNGGPFSVSERTISAGEASSYNYIHLNLEHHHHHH”: the “soluble on expression in E. coli” value is reported as “soluble”. Turning to “SVCAAQNCQRPCKDKVDWVQCDGGCDEWFHQVCVGVSPEMAENEDYICINCA”, the “soluble on expression in E. coli” value is “soluble”. With “MFFKRGKILSAGRLNKKSLGIVMLLSVGLLLAGCSGSKSSDTGTYSGSVYTVKRGDTLYRISRTTGTSVKELARLNGISPPYTIEVGQKLKLGGAKSSSITRKSTAKSTTKTASVTPSSAVPKSSWPPVGQRCWLWPTTGKVIMPYSTADGGNKGIDISAPRGTPIYAAGAGKVVYVGNQLRGYGNLIMIKHSEDYITAYAHNDTMLVNNGQSVKAGQKIATMGSTDAASVRLHFQIRYRATAIDPLRYLPPQGSKPKC”, the “soluble on expression in E. coli” value is reported as “not soluble”. “MGSDKIHHHHHHARDTLFVNLTDATDSQSLKLSDFGNTVRYVPLETNEVCLIGNNPHIALLEDKIVIATKDQCFLFHKQTGKYICSIGHIGDDPSGYSSTNYWIDDAGLFYFFRAPDQLLKYNQKGEMTGKIQIPHIPAAPDFFAFSDSTIIAHCNSSIGLESSNSLLFLNSFGEKLDSIPNLLKSPSIPSPDNISSLSIIKRGAGFFGNLGRRGVMIIKDKEQGELLLPLYNPSLWSSENEVRFRETFTDTIYTIKNRKLYPYMVFHTDTDHSSANPLWYSNPQSIYVAYVLENTHSVFFQYVKNKQVYNGLYNKETQQTKFAKCQQFIVDDLTSEQELKVDLSALCSYKGEYGFILEAASIPDASQKQSDNKNENIPHWMSQLDEDANPVIAIVSDK”: the “soluble on expression in E. coli” value was “not soluble”. In the case of “MGSDKIHHHHHHMSNKPFYYQDPFPLSKDDTEYRLLSSDFVSVAQFEGQDILKVEPAALTLLAQQAFHDASFMLRPAHQQQVADILHDPEASENDKYVALQFLRNSEISAKGILPTCQDTGTAIIVGKKGQNVWTGGNDAEALSQGVYNTFIEDNLRYSQNAALDMYQEVNTGTNLPAQIDLYSTEGEDYKFLFVTKGGGSANKTYLYQETKALLTPGKLKSFLIEKMRSLGTAACPPYHIAFAIGGTSAETTLKTVKLASTKYYDELPTEGNEHGQAFRDVALEQEILEAARDLGLGAQFGGKYFAHDVRIIRLPRHGASCPVGMGVSCSADRNIKGKINRKGVWLEQLEQNPGKYIPEHLRETGEGDAVKIDLNRPMTEILKTLSQYPVSTRLSLTGTIIVGRDIAHAKLKERLDNGEGLPQYIKDHPIYYAGPAKTPEGYPSGSLGPTTAGRMDSYVDLLQANGGSMVMLAKGNRSQQVTDACHKHGGFYLGSIGGPAAILAQNSIKSLTCVEYPELGMEAIWKIEVEDFPAFILVDDKGNDFFQVIQSAKCVKCG”, the “soluble on expression in E. coli” value was “not soluble”.

For the origin of these results see the DeepSol protein solubility set.
